Measurements from paper PMC4942575, “Plastid-nucleus communication involves calcium-modulated MAPK signalling”.

What was measured:
MBP-ABI4 WT = MBP-ABI4 WT (Arabidopsis thaliana, UniProt A0MES8 1-328); assay: EMSA; poly(dI/dC); competed by excess unlabelled probe; 10 ul: 2 ug protein, 200 fmol biotin probe, 1 ul poly(dI/dC), 1x LightShift binding buffer, 5% glycerol; room temperature 20 min; 6% native PAGE; pH and salt not given; settings: protein: recombinant; tags: MBP (pETMALc-H); label: 3' biotin
MBP-ABI4 WT, sequence (A0MES8 whole entry): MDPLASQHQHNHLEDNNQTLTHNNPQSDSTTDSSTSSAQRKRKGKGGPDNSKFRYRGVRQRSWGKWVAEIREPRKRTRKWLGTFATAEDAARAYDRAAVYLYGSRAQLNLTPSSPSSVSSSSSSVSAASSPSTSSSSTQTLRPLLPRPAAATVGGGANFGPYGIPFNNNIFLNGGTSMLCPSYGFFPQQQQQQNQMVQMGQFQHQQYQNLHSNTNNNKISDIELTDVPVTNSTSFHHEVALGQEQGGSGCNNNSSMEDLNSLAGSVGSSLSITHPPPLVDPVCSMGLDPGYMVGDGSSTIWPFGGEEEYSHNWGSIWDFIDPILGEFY

MBP-ABI4 AAA = MBP-ABI4 AAA (Arabidopsis thaliana, UniProt A0MES8 1-328, T111A;S114A;S130A); assay: EMSA; poly(dI/dC); 10 ul: 2 ug protein, 200 fmol biotin probe, 1 ul poly(dI/dC), 1x LightShift binding buffer, 5% glycerol; room temperature 20 min; 6% native PAGE; pH and salt not given; settings: protein: recombinant; tags: MBP (pETMALc-H); label: 3' biotin
MBP-ABI4 AAA, sequence (A0MES8 whole entry T111A/S114A/S130A): as the sequence (A0MES8 whole entry) above, with T111A, S114A, S130A counted along it

B1: LHCB promoter probe (dsDNA)
DNA 1: GACTAGAGACTGCCACATAAGAATAGTAAAGTTA
DNA 2: TAACTTTACTATTCTTATGTGGCAGTCTCTAGTC
binding result (MBP-ABI4 WT): binds
binding result (MBP-ABI4 AAA): no binding
